Assay results published in the RNAGym collection of RNA variant scans (doi:10.1073/pnas.2313332121).

B1: TPR t1 (parent)
chain: GACCAAUCUGCCCUCAGAGCUCGAGAACAUCUUCGGAUGCAGAGGAGGCAGGCUUCGGUGGCGCGAUAGCGCCAACGUCCUCAACCUCCAAUGCAUCCCACCACAUGAUGAUGCCUGAAGAGCCUUGGUUUUUUG

Variants of: B1
Experiment: polymerase ribozyme fitness, log enrichment relative to wild type (log ratio); higher = more active; in vitro selection for triplet polymerase activity
Summary of the method: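 The heterodimeric triplet polymerase ribozyme's subunits were each mutagenized into PCR-built libraries and transcribed. Every library was selected once, in triplicate, by annealing with a biotinylated primer, the partner subunit and triplets, incubating frozen at −7 °C, gel-excising extended constructs, capturing on streptavidin beads and running RT-PCR. Input and output libraries were Illumina-sequenced, with genotypes kept only at ≥10 input reads and ≥1 read per output. Fitness, from inverse-variance-weighted replicate averages, is the base-2 logarithm of genotype enrichment over wild-type enrichment.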

Variant | polymerase ribozyme fitness (log ratio)
G61U C89G | -1.53
G19U A50U | -3.48
C40A G44U G45A | -3.66
U55A G57A U112G | -0.322
A74U U116G U133G | -2.9
G45C C89U U133A | -1.58
C79U G113A C123U U129C | -3.48
C12U C62G | -1.57
C34U U112A G122A | -5.94
U21A A43C | -2.9
G39C G65U | -6.02
G10C A41C G71C G122A | -2.21
A66C C82G | -2.06
C56A C82A G128A | -2.53
G120A G135A | -0.0112
C15G A84U | -2.56
A41U C53A G58A | -1.32
U32C G61A U67G C82U | -7.29
A27U G44U C56A U133A | -4.31
G52A U78C | -0.748
A6U G52U C53G C70U G128C | -2.99

Variant | polymerase ribozyme fitness (log ratio)
G35A G48A G71A C89A C99A C101U | -7.55
C28G G39U C53U G63C C124A | -3.26
C8G G61A U87G C123A | 1.64
A26G U129C | -2.73
G113A G122C | -3.36
G10A U96G | -0.411
C73G C94G | -1.94
G47A C102U | -2.85
C73U U109G | -4.33
G36U G39U C70U A111G | -4.55
U9C G10A | 0.0311
A26U G36U C101U | -5.32
U14G A50G A84G | -3.03
G58C G71A C82G C88G | -2.39
A2C G63C U130A | -2.69
G45A U59A A83C C114G G122C | -4.2
A18C C40U A41G C56G C70U | -4.84
U78C U112A G113A G122C U130C | -1.11
C15U A95G C114G | -4.48
G45U C114G | -3.8
G45U C114A | -0.0443

Variant | polymerase ribozyme fitness (log ratio)
G42C U96A C123U | -0.809
C13G C94U | -1.78
C8G C15A G69A C89G | -5.71
C4U A26G A41U C72U U87G A111C | -4
A46G C49G G69C C104U | -3.16
A16G A46C G120C | -0.418
C34A G60C U112G U130A U133A | -4.54
C72G U78A U109A G128A | -5.92
U33G C64U U112G | -6.48
U9G G69U C73U U106C | 0.373
C20A G61A C80G U109A G113U U133G | -7.36
C62U G120U | -0.189
G60C A84U U116C | -0.854
C13A G36C | -1.87
G58A G63U A118G | -0.392
C40U C82G | -1.54
G10C C15U C53U C123A | 0.897
C8G C62U C99U | -2.93
G48C C56G G110U | -1.56
C4U C11A | -1.89
G17C C85G | -6.06

Variant | polymerase ribozyme fitness (log ratio)
A29C G71A C88G C123A U131C | -4.27
C20U G48C U54G A74C | -3.11
C8G G47C C85G | -1.92
U30C A46G A74G G113A | -2.75
C3A G39A A68G G128U | -4.5
C8G G23U A24U A41C G60U C86G C101A G120A | -7.63
G44U G51C | -5.32
C82G C102A G120A G122U | -2.05
U9A C70U U78A | -0.654
C12U G60C | 0.537
U78A U109C | -4.47
G61A A74C C79A U131G | -1.98
C82U A100C C123U | -0.0044
U9A U14G C73G G117C | -1.75
A2C U87G | -1.65
U7C A16G A29U G63U C97U U109A | -1.24
C13G G71C | -3.5
U38G A46U G77U C124U | -1.67
C15G C86U G110A A118U | -3.91
A5U A83U G120U U129C | -1.35
